Measurements as given in patent US20250051465A1 (published 2025).

T1: human LEPR extracellular domain expressed with a C-terminal mouse IgG2a Fc tag (hLEPR.mFc) (human)
T1 construct: also called dimeric human LEPR
T1 chain: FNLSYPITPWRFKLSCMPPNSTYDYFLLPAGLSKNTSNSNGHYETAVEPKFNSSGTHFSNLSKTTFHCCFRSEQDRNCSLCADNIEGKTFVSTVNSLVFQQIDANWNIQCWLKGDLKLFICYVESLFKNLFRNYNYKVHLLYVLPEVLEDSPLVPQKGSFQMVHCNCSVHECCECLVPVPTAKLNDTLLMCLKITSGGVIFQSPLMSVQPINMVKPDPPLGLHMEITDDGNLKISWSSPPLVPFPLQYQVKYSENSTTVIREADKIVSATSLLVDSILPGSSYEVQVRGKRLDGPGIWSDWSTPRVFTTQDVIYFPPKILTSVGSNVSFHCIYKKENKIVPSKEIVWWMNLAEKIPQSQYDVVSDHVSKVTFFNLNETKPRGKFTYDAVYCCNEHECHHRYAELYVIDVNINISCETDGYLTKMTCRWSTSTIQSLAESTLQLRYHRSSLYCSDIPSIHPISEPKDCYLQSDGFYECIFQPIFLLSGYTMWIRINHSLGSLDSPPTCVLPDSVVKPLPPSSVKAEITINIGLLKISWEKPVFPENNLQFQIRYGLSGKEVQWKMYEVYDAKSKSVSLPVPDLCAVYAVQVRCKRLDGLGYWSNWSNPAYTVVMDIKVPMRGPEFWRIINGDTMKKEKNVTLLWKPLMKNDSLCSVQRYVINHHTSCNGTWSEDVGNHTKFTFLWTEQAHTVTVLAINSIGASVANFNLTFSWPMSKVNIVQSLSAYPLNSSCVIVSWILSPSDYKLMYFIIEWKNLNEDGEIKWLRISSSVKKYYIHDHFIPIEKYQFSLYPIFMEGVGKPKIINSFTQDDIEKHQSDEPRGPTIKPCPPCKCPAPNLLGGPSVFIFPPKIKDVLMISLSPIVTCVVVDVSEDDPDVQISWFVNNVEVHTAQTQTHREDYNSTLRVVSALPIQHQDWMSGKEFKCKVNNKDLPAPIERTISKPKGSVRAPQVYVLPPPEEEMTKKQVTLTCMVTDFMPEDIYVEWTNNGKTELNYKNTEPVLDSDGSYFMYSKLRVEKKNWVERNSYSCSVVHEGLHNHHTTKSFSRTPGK

B1: H4H16679P2 (antibody, human IgG4, V domains shown)
VH: QVQLVESGGGVVQPGRSLRLSCTASGFTFSSYAMYWVRQAPGKGLEWVSVIYYDGSYKYYADSVKGRFTISRDNSKNTLYLQMDSLRAEDTAVYYCASYNWNYWYFDFWGRGTLVTVSS
VL: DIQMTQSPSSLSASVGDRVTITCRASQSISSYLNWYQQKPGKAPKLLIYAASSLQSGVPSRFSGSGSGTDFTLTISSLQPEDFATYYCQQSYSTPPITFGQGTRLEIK
notes: Fully human antibody with human IgG4 Fc (H4H prefix)
B2: H4H17321P2 (antibody, human IgG4, V domains shown)
VH: QVQLVESGGGVVQPGRSLRLSCEASGFSSSDNAMYWVRQAPGKGLEWVSVIYHDGSYKYYEDSVKGRFTIARDNSKNTLYLQMNSLRAEDTAVYYCARYNWNHWYFDVWGRGTLVTVSS
VL: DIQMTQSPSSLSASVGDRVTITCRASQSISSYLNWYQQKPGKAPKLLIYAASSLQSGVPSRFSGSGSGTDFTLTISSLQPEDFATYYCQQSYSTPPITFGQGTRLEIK
notes: as for B1
B3: H4H17319P2 (antibody, human IgG4, V domains shown)
VH: QVQLVESGGSVVQPGRSLRLSCAASGFTFSTYAMYWVRQTPGKGLEWVAVLYSDGSNKYYIDSVKGRFTISRDTSTNTLYLQMSSLRADDSALYYCARLNWDYWYFDLWGRGTLVTVSS
VL: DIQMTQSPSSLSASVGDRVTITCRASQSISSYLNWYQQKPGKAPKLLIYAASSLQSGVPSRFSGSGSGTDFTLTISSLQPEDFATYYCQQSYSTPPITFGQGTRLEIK
notes: as for B1

Columns and labels:
[1] = target: T2, human LEPR extracellular domain expressed with a C-terminal myc-myc-hexahistidine tag (hLEPR.mmh) (human, UniProt P48357 22-839); experiment: SPR, captured mAb, 25C
T2 construct: also called human LEPR-MMH; monomeric human LEPR

[2] = target: T1, human LEPR extracellular domain …; experiment: SPR, captured mAb, 25C
[3] = target: T2, human LEPR extracellular domain …; experiment: SPR, captured mAb, 37C
Description: (§1) Equilibrium dissociation constants (KD values) for LEPR binding to purified anti-LEPR monoclonal antibodies were determined using a real-time surface plasmon resonance biosensor using a Biacore 4000 instrument. All binding studies were performed in 10 mM HEPES, 150 mM NaCl, 3 mM EDTA, and 0.05% v/v Surfactant Tween-20, pH 7.4 (HBS-ET) running buffer at 25° C. and 37° C. The Biacore sensor surface was first derivatized by amine coupling with a monoclonal mouse anti-human Fc antibody (GE, #BR-1008-39) to capture anti-LEPR monoclonal antibodies. […] Kinetic association (kₐ) and dissociation (kd) rate constants were determined by fitting the real-time binding sensorgrams to a 1:1 binding model with mass transport limitation using Scrubber 2.0c curve-fitting software. Binding dissociation equilibrium constants (KD) and dissociative half-lives (t½) were calculated from the kinetic rate constants as: […]

[4] = target: T3, Macaca fascicularis LEPR extracellular domain expressed with a C-terminal myc-myc-hexahistidine tag … (Macaca fascicularis, UniProt Q9MYL0 22-837 (rhesus entry)); experiment: SPR, captured mAb, 37C
T3 construct: also called mfLEP.MMH
Description: as §1

[5] = target: T1, human LEPR extracellular domain …; experiment: SPR, captured mAb, 37C
Description: as §1

[6] = target: T4, human LEPR CRH1 (D1,D2,D3)-MMH (human, UniProt P48357 22-427, limits assumed); experiment: Luminex, myc-captured LEPR domain
T4 construct: domain: CRH1-Ig (D1,D2,D3); Transiently expressed, captured from supernatant on anti-myc beads; also called CRH1-Ig (D1, D2, D3)
Description: (§2) Aliquots of microspheres with immobilized anti-myc monoclonal antibodies, prepared as described above, were added individually to 1 mL of the each of these protein supernatants. The microspheres were gently mixed, incubated for two hours at 25° C., washed twice with 1 mL of DBPS, centrifuged to remove the supernatant and finally resuspended in 1 mL of DPBS buffer. Forty-eight μL of anti-myc IgG coupled microspheres from individual reactions with full length human LEPR and with each of the human LEPR domain proteins were withdrawn and mixed together in 3.6 mL of PBS+20 mg/mL BSA+0.05% sodium azide (blocking buffer).
(§3) From this mixed pool, 75 μL of microspheres were plated per well on a 96 well filter plate (Millipore, Cat. No: MSBVN1250) and mixed with 25 μL of individual anti-human LEPR monoclonal antibodies (0.5 or 5 µg/mL), incubated for two hours at 25° C. and then washed twice with 200 μL of DPBS with 0.05% Tween 20 (washing buffer). […] After 30 minutes, the samples were washed twice with 200 μL of washing buffer and resuspended in 150 μL of wash buffer. The Median Fluorescence intensity (MFI) of the microspheres was measured in a Luminex Analyzer.

human LEPR Ig (D3)-MMH = target: T5, human LEPR Ig (D3)-MMH (human, UniProt P48357 340-427, limits assumed); experiment: Luminex, myc-captured LEPR domain
T5 construct: domain: Ig (D3); Transiently expressed, captured from supernatant on anti-myc beads
Description: as §2, §3

[7] = target: T6, human LEPR Ig-CRH2-FNIII-MMH (human, UniProt P48357 330-839, limits assumed); experiment: Luminex, myc-captured LEPR domain
T6 construct: domain: Ig-CRH2-FNIII; Transiently expressed, captured from supernatant on anti-myc beads
Description: as §2, §3

T6 sequence (P48357 other isoform, or with tags, fused parts or gaps limits assumed): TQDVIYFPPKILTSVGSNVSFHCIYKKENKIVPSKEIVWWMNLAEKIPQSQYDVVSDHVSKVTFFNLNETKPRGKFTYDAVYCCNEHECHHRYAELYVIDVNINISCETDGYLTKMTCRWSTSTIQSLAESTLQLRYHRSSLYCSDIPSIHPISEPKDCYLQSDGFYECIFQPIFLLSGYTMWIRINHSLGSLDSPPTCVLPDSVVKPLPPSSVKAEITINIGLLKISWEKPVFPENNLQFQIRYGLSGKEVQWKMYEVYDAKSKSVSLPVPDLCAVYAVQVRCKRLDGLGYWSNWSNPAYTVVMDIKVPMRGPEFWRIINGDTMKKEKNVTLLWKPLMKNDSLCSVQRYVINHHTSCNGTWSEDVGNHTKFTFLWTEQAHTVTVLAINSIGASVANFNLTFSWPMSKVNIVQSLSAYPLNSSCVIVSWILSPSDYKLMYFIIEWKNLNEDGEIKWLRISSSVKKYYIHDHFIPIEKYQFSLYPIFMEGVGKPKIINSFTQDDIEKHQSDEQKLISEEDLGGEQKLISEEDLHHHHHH
T5 sequence (P48357 other isoform, or with tags, fused parts or gaps limits assumed): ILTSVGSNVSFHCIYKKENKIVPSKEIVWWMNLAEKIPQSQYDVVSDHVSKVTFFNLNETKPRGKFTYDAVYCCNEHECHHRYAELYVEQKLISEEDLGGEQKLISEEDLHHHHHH

Row | Binder | 100 nM hLEPR-MMH Bound (RU) [1] | Kd [1] | koff [1] | kon [1] | t½ [1] | 100 nM hLEPR-mFc Bound (RU) [2] | Kd [2] | koff [2] | kon [2] | t½ [2] | 100 nM hLEPR-MMH Bound (RU) [3] | Kd [3] | koff [3] | kon [3] | t½ [3] | 100 nM mfLEPR.MMH Bound (RU) [4] | Kd [4] | koff [4] | kon [4] | t½ [4] | also measured
1 | B1 | 39 RU | 10.5 nM | 0.000246 s⁻¹ | 23400 M⁻¹ s⁻¹ | 47 min | 78 RU | 1.66 nM | 9.68e-05 s⁻¹ | 58400 M⁻¹ s⁻¹ | 119 min | 61 RU | 21.9 nM | 0.000842 s⁻¹ | 38400 M⁻¹ s⁻¹ | 14 min | 104 RU | 10.4 nM | 0.000677 s⁻¹ | 64900 M⁻¹ s⁻¹ | 17 min | 100 nM hLEPR-mFc Bound (RU) [5]: 116 RU; Kd [5]: 2.56 nM; koff [5]: 0.00031 s⁻¹; kon [5]: 121000 M⁻¹ s⁻¹; t½ [5]: 37 min; MFI [6]: 2800 MFI; MFI (human LEPR Ig (D3)-MMH): 14 MFI; MFI [7]: 42 MFI
2 | B2 | 32 RU | 8.31 nM | 0.000196 s⁻¹ | 23600 M⁻¹ s⁻¹ | 59 min | 65 RU | 2.18 nM | 8.93e-05 s⁻¹ | 41000 M⁻¹ s⁻¹ | 129 min | 61 RU | 14.8 nM | 0.000438 s⁻¹ | 29500 M⁻¹ s⁻¹ | 26 min | 143 RU | 5.18 nM | 0.000257 s⁻¹ | 49700 M⁻¹ s⁻¹ | 45 min | 100 nM hLEPR-mFc Bound (RU) [5]: 110 RU; Kd [5]: 3.15 nM; koff [5]: 0.000174 s⁻¹; kon [5]: 55300 M⁻¹ s⁻¹; t½ [5]: 66 min; MFI [6]: 1750 MFI; MFI (human LEPR Ig (D3)-MMH): 7 MFI; MFI [7]: 14 MFI
3 | B3 | 36 RU | 20.3 nM | 0.000529 s⁻¹ | 26100 M⁻¹ s⁻¹ | 22 min | 69 RU | 3.45 nM | 0.000164 s⁻¹ | 47700 M⁻¹ s⁻¹ | 70 min | 44 RU | 96.3 nM | 0.00341 s⁻¹ | 35400 M⁻¹ s⁻¹ | 3.4 min | 113 RU | 60.1 nM | 0.00324 s⁻¹ | 53900 M⁻¹ s⁻¹ | 3.6 min | 100 nM hLEPR-mFc Bound (RU) [5]: 100 RU; Kd [5]: 7.66 nM; koff [5]: 0.000652 s⁻¹; kon [5]: 85100 M⁻¹ s⁻¹; t½ [5]: 18 min; MFI [6]: 938 MFI; MFI (human LEPR Ig (D3)-MMH): 8 MFI; MFI [7]: 8 MFI
